Experimental data from US20060073087A1, “Method and apparatus for the formation of particles” (priority 1994, published 2006).

Experiment: colorimetric beta-lactamase activity assay with Nitrocefin (method of O'Callaghan)
Assay type: biochemical
Settings: particles formed from aqueous solution with ethanol and supercritical CO2; tested colorimetrically with Nitrocefin
Description: This illustrates the successful use of the method and apparatus of the invention in preparing particulate protein products in a controlled manner, even where the proteins are insoluble in, or incompatible with, organic solvents.

B1: R-TEM beta-lactamase (protein, UniProt P62593 24-286, looked up)
Beta-lactamase TEM: HPETLVKVKDAEDQLGARVGYIELDLNSGKILESFRPEERFPMMSTFKVLLCGAVLSRVDAGQEQLGRRIHYSQNDLVEYSPVTEKHLTDGMTVRELCSAAITMSDNTAANLLLTTIGGPKELTAFLHNMGDHVTRLDRWEPELNEAIPNDERDTTMPAAMATTLRKLLTGELLTLASRQQLIDWMEADKVAGPLLRSALPAGWFIADKSGAGERGSRGIIAALGPDGKPSRIVVIYTTGSQATMDERNRQIAEIGASLIKHW
notes: water-soluble protein R-TEM beta-lactamase, batch number 1TEM1L88, formed into particles by the method of the invention
Q: Which “enzymatic activity of the particulate product” value does the source give for B1 here?
A: Its value is “retained substantial enzymatic activity”.
